± gives the standard deviation of the averaged measurements.
Key:
[1] = test system: VchCAST RNA-guided transposition machinery (E. coli BL21(DE3) host, lacZ target); test: relative integration efficiency (T-LR orientation) vs wild-type transposon end (log2 (normalized fold change)); transposon end mutated: left end; higher = more efficient transposition
Method in brief: (§1)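 A T7-driven effector plasmid encoding a CRISPR array, tniQ-cas8-cas7-cas6 and tnsA-tnsB-tnsC was co-transformed into E. coli BL21(DE3) together with a pUC57 mini-transposon donor holding barcoded pools of 1549 left-end or 1849 right-end variants. Transformants were plated with 0.1 mM IPTG at 37°C for 18 h. Illumina sequencing of PCR-amplified input plasmids and genomic integration junctions gave barcode abundances, and relative integration efficiency is their output/input fold change, normalised to reference barcodes and log-transformed.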

[2] = test system: VchCAST RNA-guided transposition machinery (E. coli BL21(DE3) host, lacZ target); test: relative integration efficiency (T-RL orientation) vs wild-type transposon end (log2 (normalized fold change)); transposon end mutated: left end; higher = more efficient transposition
Method in brief: as §1

Sequence: AATGTTGTTGATGCAACCATAAAGTGATATTTAATAATTATTTATAATCAGCAACTTAACCACAAAACAACCATATATTGATATCTCACAAAACAACCATAAGTTGATCGGGGGTGTCCGATCTGATTTCAGCAAAACTACTGCAGTAAGAA
- relative integration efficiency (log2) [1]: -1.32 ± 0.59
- relative integration efficiency (log2) [2]: -1.03 ± 0.49

Sequence: AATGTTGTTGATGCAACCATAAAGTGATATTTAATAATTATTTATAATCAGCAACTTAACCACAAAACAACCATATATTGATATCTCACAAAACAACCATAAGTTGATTGTGAATCGAGTATTTCAGCAAAACTACTGCAGTAAGAAAGTTA
- relative integration efficiency (log2) [1]: -0.858 ± 0.1
- relative integration efficiency (log2) [2]: -0.574 ± 0.38

Sequence: AATGTTGTTGATGCAACCATAAAGTGATATTTAATAATTATTTATAATCAGCAACTTAACCACAAAACAACCATATATTGATATCTCACAAAACAACCATAAGTTGCGCGGGGGTGTCCGATCTGATTTCAGCAAAACTACTGCAGTAAGAA
- relative integration efficiency (log2) [1]: -3.15 ± 1.6
- relative integration efficiency (log2) [2]: -1.74 ± 0.81

Sequence: AATGTTGTTGATGCAACCATAAAGTGATATTTAATAATTATTTATAATCAGCAACTTAACCACAAAACAACCATATATTGATATCTCACAAAACAACCATAAGTTTCGCGGGGGTGTCCGATCTGATTTCAGCAAAACTACTGCAGTAAGAA
- relative integration efficiency (log2) [1]: -2.11 ± 1.5
- relative integration efficiency (log2) [2]: -2.22 ± 0.95

Sequence: AATGTTGTTGATGCAACCATAAAGTGATATTTAATAATTATTTATAATCAGCAACTTAACCACAAAACAACCATATATTGATATCTCACAAAACAACCATAATGGTCGCGGGGGTGTCCGATCTGATTTCAGCAAAACTACTGCAGTAAGAA
- relative integration efficiency (log2) [1]: -1.31 ± 0.87
- relative integration efficiency (log2) [2]: -1.93 ± 0.81

Sequence: AATGTTGTTGATGCAACCATAAAGTGATATTTAATAATTATTTATAATCAGCAACTTAACCACAAAACAACCATATATTGATATCTCACAAAACAACCATACTGGTCGCGGGGGTGTCCGATCTGATTTCAGCAAAACTACTGCAGTAAGAA
- relative integration efficiency (log2) [1]: -0.966 ± 1.7
- relative integration efficiency (log2) [2]: -2.24 ± 0.99

Sequence: AATGTTGTTGATGCAACCATAAAGTGATATTTAATAATTATTTATAATCAGCAACTTAACCACAAAACAACCATATATTGATATCTCACAAAACAACCATCCTGGTCGCGGGGGTGTCCGATCTGATTTCAGCAAAACTACTGCAGTAAGAA
- relative integration efficiency (log2) [1]: -0.61 ± 0.64
- relative integration efficiency (log2) [2]: -1.99 ± 0.82

Sequence: AATGTTGTTGATGCAACCATAAAGTGATATTTAATAATTATTTATAATCAGCAACTTAACCACAAAACAACCATATATTGATATCTCACAAAACAACCCGCCTGGTCGCGGGGGTGTCCGATCTGATTTCAGCAAAACTACTGCAGTAAGAA
- relative integration efficiency (log2) [1]: -1.63 ± 2.3
- relative integration efficiency (log2) [2]: -2.27 ± 0.81

Sequence: AATGTTGTTGATGCAACCATAAAGTGATATTTAATAATTATTTATAATCAGCAACTTAACCACAAAACAACCATATATTGATATCTCACAAAACACAACGCCTGGTCGCGGGGGTGTCCGATCTGATTTCAGCAAAACTACTGCAGTAAGAA
- relative integration efficiency (log2) [1]: -0.789 ± 1.1
- relative integration efficiency (log2) [2]: -2.63 ± 1.3

Sequence: AATGTTGTTGATGCAACCATAAAGTGATATTTAATAATTATTTATAATCAGCAACTTAACCACAAAACAACCATATATTGATATCTCACAAAACCCAACGCCTGGTCGCGGGGGTGTCCGATCTGATTTCAGCAAAACTACTGCAGTAAGAA
- relative integration efficiency (log2) [1]: -0.934 ± 0.6
- relative integration efficiency (log2) [2]: -2.31 ± 0.93

Sequence: AATGTTGTTGATGCAACCATAAAGTGATATTTAATAATTATTTATAATCAGCAACTTAACCACAAAACAACCATATATTGATATCTCACAAAAGTTGGTATTCAACTATAAAATGTGAATCGAGTATTTCAGCAAAACTACTGCAGTAAGAA
- relative integration efficiency (log2) [1]: -0.838 ± 0.94
- relative integration efficiency (log2) [2]: -2.5 ± 0.79

Sequence: AATGTTGTTGATGCAACCATAAAGTGATATTTAATAATTATTTATAATCAGCAACTTAACCACAAAACAACCATATATTGATATCTCACAAACAACCATAAGTTGATATTTTTGTGAATCGAGTATTTCAGCAAAACTACTGCAGTAAGAAA
- relative integration efficiency (log2) [1]: -0.446 ± 0.92
- relative integration efficiency (log2) [2]: -1.69 ± 0.68

Sequence: AATGTTGTTGATGCAACCATAAAGTGATATTTAATAATTATTTATAATCAGCAACTTAACCACAAAACAACCATATATTGATATCTCACAAACACCAACGCCTGGTCGCGGGGGTGTCCGATCTGATTTCAGCAAAACTACTGCAGTAAGAA
- relative integration efficiency (log2) [1]: -0.664 ± 1.2
- relative integration efficiency (log2) [2]: -2.54 ± 0.9
